Experiments:
Assay in all cases: pull-down from DA3(EPOR) cell extracts on GST-EPOR cytoplasmic domain beads, immunoblot
c-fes = c-fes (UniProt P16879 1-822)
Procedure: (§1) The fusion proteins were purified by affinity binding to glutathione-sepharose beads and the proteins, on affinity beads, were incubated with extracts of unstimulated or EPO stimulated DA3(EPOR) cells. The bound proteins were recovered from the beads, resolved on SDS-PAGE and the gels blotted to nitrocellulose. The blots were subsequently probed with antisera against various tyrosine kinases.

lyn = molecular target: T1, lyn (UniProt P25911 2-512, limits assumed)
T1 construct: also called lyn kinase
T1 sequence (P25911 2-512 limits assumed): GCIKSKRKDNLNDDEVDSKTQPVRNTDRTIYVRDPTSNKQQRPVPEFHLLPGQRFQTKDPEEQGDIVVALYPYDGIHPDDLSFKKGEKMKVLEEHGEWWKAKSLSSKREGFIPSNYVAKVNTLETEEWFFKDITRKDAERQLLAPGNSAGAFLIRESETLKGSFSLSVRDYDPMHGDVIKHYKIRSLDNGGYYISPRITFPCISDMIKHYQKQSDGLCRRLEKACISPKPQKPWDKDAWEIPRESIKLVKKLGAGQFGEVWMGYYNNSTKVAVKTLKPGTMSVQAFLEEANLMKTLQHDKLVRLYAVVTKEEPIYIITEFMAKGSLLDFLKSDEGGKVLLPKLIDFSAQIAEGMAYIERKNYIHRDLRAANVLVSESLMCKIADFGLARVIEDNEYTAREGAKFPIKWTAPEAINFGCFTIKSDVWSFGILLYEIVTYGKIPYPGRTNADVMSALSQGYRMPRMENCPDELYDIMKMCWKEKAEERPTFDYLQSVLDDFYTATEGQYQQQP
Procedure: as §1

murine Tec = molecular target: T2, murine Tec (murine, UniProt P24604 1-630, limits assumed)
T2 sequence (looked up): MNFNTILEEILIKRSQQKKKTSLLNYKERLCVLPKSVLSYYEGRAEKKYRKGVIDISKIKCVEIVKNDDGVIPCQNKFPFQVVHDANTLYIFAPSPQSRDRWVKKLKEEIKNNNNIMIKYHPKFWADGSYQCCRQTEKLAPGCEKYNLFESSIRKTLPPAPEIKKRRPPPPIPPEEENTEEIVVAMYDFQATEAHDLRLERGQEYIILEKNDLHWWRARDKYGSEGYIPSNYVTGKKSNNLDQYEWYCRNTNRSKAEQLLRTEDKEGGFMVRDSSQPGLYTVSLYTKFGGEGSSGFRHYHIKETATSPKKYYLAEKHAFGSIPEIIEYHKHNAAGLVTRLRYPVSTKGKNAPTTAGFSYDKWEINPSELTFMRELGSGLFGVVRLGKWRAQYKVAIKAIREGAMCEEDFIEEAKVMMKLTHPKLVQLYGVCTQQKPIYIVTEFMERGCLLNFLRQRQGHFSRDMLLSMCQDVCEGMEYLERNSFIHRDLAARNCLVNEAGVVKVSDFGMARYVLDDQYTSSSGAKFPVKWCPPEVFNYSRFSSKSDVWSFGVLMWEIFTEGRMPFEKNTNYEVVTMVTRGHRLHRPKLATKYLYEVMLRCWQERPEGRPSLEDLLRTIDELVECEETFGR
Procedure: as §1

Measured: binding result

Chain of c-fes (P16879 whole entry, the tested form may be a part): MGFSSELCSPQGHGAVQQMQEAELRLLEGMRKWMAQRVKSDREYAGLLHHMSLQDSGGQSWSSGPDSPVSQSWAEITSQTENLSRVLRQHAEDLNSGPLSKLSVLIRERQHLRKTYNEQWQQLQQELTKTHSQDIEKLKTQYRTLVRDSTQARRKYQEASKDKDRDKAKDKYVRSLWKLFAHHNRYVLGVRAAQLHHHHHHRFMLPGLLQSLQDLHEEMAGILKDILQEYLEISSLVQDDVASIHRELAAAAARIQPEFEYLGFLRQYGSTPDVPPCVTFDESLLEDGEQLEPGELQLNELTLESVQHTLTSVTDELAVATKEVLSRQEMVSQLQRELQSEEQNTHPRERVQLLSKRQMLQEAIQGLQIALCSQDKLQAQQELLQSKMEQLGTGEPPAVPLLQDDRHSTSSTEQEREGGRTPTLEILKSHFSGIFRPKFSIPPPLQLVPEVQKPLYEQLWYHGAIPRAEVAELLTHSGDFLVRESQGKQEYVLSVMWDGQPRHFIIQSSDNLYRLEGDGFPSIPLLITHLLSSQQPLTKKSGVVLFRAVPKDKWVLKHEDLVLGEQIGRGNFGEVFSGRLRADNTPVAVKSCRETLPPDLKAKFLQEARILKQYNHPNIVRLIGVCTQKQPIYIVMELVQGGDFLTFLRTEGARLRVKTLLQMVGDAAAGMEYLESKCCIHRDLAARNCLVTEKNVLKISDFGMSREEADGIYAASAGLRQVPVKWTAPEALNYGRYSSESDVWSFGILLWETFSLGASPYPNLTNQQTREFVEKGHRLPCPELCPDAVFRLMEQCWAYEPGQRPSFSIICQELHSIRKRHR

B1: GST fusion protein containing the full length murine EPOR cytoplasmic domain (amino acids 257-483) (other, UniProt P14753 281-507, looked up)
chain: IWPGIPSPESEFEGLFTTHKGNFQLWLLQRDGCLWWSPGSSFPEDPPAHLEVLSEPRWAVTQAGDPGADDEGPLLEPVGSEHAQDTYLVLDKWLLPRTPCSENLSGPGGSVDPVTMDEASETSSCPSDLASKPRPEGTSPSSFEYTILDPSSQLLCPRALPPELPPTPPHLKYLYLVVSDSGISTDYSSGGSQGVHGDSSDGPYSHPYENSLVPDSEPLHPGYVACS
notes: range 257-483; Expressed in E. coli and immobilised on glutathione-sepharose; also called GST-EPOR fusion protein; fusion protein containing the complete cytoplasmic domain; not shown: amino-terminal glutathione-S-transferase (GST) domain encoded by pGEX-2T
no binding: all assays above

Source: patent publication US6969760 (ST JUDE CHILDREN S RESEARCH HOSPITAL, dated 2005)
